Numbered stars: 1 amine (or outer) side, 2 acyl side, 3 side chain; on linkers, the order of the positions; unused ones are H or OH. Square brackets hold non-standard residues; d marks the D form. Side chains are listed from the residue outwards. Ends that are not written are not given here. * marks the point of attachment. C20 diacid = O=C(O)CCCCCCCCCCCCCCCCCCC(=O)*; C18 diacid = O=C(O)CCCCCCCCCCCCCCCCC(=O)*; αMePhe(2-F) = C[C@](N)(Cc1ccccc1F)C(=O)O; γGlu = O=C(O)[C@H](CCC(=O)[*:2])N[*:1]; αMeL = CC(C)C[C@](C)(N)C(=O)O; αMeK = C[C@](N)(CCCCN)C(=O)O; αMeP = C[C@@]1(C(=O)O)CCCN1; AEEA = NCCOCCOCC(=O)O; Aib = CC(C)(N)C(=O)O
Target: human GLP-1 receptor (human, UniProt P43220 24-463)
Test: cell-based or functional assay

Binder	hGLPIR cAMP EC50 ratio
YXEGTXTSDQSIXLDEKAQXEFIXYLIEGGPSSGAPPPS (Aib2; αMeF(2F)6; αMeL13; K17((2-[2-(2-Amino-ethoxy)-ethoxy]-acetyl)2-(γGlu)-CO-(CH2)18-CO2H); Aib20; D-Glu24; C-terminal NH2) [Peptide 187]	0.702
YXEGTXTSDXSIXLDEKAQXEFIXYLIEGGPSSGAPPPS (Aib2; αMeF(2F)6; 4Pal10; αMeL13; K17((2-[2-(2-Amino-ethoxy)-ethoxy]-acetyl)2-CO-(CH2)16-CO2H); Aib20; D-Glu24; C-terminal NH2) [Peptide 205]	1.46
YXEGTXTSDHSIXLDXKAQXTFIXYLIEGGPSSGAPPPS (Aib2; αMeF(2F)6; αMeL13; Dap16; K17((2-[2-(2-Amino-ethoxy)-ethoxy]-acetyl)2-(γGlu)-CO-(CH2)18-CO2H); Aib20; D-Glu24; C-terminal NH2) [Peptide 173]	0.0373
YXEGTXTSDHSIXLDEKAQXHFIXYLIEGGPSSGAPPPS (Aib2; αMeF(2F)6; αMeL13; K17((2-[2-(2-Amino-ethoxy)-ethoxy]-acetyl)2-(γGlu)-CO-(CH2)14-CO2H); Aib20; D-Glu24; C-terminal NH2) [Peptide 178]	0.00349
YXEGTXTSDLSIXLDEKAQXEFIXYLIEGGPSSGAPPPS (Aib2; αMeF(2F)6; αMeL13; K17((2-[2-(2-Amino-ethoxy)-ethoxy]-acetyl)2-(γGlu)-CO-(CH2)18-CO2H); Aib20; D-Glu24; C-terminal NH2) [Peptide 183]	0.843
YXEGTXTSDXSIXLDEKAQXEFIXYLIEGGPSSGAPPPS (Aib2; αMeF(2F)6; 3Pal10; αMeL13; K17((2-[2-(2-Amino-ethoxy)-ethoxy]-acetyl)2-(γGlu)-CO-(CH2)18-CO2H); Aib20; D-Glu24; C-terminal NH2) [Peptide 181]	0.718
YXEGTXTSDYSIXLDEKAQXEFIXYLIEGGPSSGAPPPS (Aib2; αMeF(2F)6; αMeL13; K17((2-[2-(2-Amino-ethoxy)-ethoxy]-acetyl)2-(γGlu)-CO-(CH2)14-CO2H); Aib20; D-Glu24; C-terminal NH2) [Peptide 208]	0.587
Y[Aib]EGT[αMePhe(2-F)]TSDHSI[αMeL]LDEK([AEEA-AEEA-γGlu-C18 diacid])AQ[Aib]HFI[dE]YLIEGG-NH2 (N-terminus assumed; SMILES CC[C@H](C)[C@H](NC(=O)[C@H](CC(C)C)NC(=O)[C@H](Cc1ccc(O)cc1)NC(=O)[C@@H](CCC(=O)O)NC(=O)[C@@H](NC(=O)[C@H](Cc1ccccc1)NC(=O)[C@H](Cc1c[nH]cn1)NC(=O)C(C)(C)NC(=O)[C@H](CCC(N)=O)NC(=O)[C@H](C)NC(=O)[C@H](CCCCNC(=O)COCCOCCNC(=O)COCCOCCNC(=O)CC[C@H](NC(=O)CCCCCCCCCCCCCCCCC(=O)O)C(=O)O)NC(=O)[C@H](CCC(=O)O)NC(=O)[C@H](CC(=O)O)NC(=O)[C@H](CC(C)C)NC(=O)[C@](C)(CC(C)C)NC(=O)[C@@H](NC(=O)[C@H](CO)NC(=O)[C@H](Cc1c[nH]cn1)NC(=O)[C@H](CC(=O)O)NC(=O)[C@H](CO)NC(=O)[C@@H](NC(=O)[C@](C)(Cc1ccccc1F)NC(=O)[C@@H](NC(=O)CNC(=O)[C@H](CCC(=O)O)NC(=O)C(C)(C)NC(=O)[C@@H](N)Cc1ccc(O)cc1)[C@@H](C)O)[C@@H](C)O)[C@@H](C)CC)[C@@H](C)CC)C(=O)N[C@@H](CCC(=O)O)C(=O)NCC(=O)NCC(N)=O) [Peptide 180]	0.0212
Y[Aib]EGTFTSDYSI[αMeL]LDEK([AEEA-AEEA-γGlu-C20 diacid])AQ[αMeK]AFIEYLLEGGPSSGAPPPS-NH2 (N-terminus assumed; SMILES CC[C@H](C)[C@H](NC(=O)[C@H](Cc1ccccc1)NC(=O)[C@H](C)NC(=O)[C@](C)(CCCCN)NC(=O)[C@H](CCC(N)=O)NC(=O)[C@H](C)NC(=O)[C@H](CCCCNC(=O)COCCOCCNC(=O)COCCOCCNC(=O)CC[C@H](NC(=O)CCCCCCCCCCCCCCCCCCC(=O)O)C(=O)O)NC(=O)[C@H](CCC(=O)O)NC(=O)[C@H](CC(=O)O)NC(=O)[C@H](CC(C)C)NC(=O)[C@](C)(CC(C)C)NC(=O)[C@@H](NC(=O)[C@H](CO)NC(=O)[C@H](Cc1ccc(O)cc1)NC(=O)[C@H](CC(=O)O)NC(=O)[C@H](CO)NC(=O)[C@@H](NC(=O)[C@H](Cc1ccccc1)NC(=O)[C@@H](NC(=O)CNC(=O)[C@H](CCC(=O)O)NC(=O)C(C)(C)NC(=O)[C@@H](N)Cc1ccc(O)cc1)[C@@H](C)O)[C@@H](C)O)[C@@H](C)CC)C(=O)N[C@@H](CCC(=O)O)C(=O)N[C@@H](Cc1ccc(O)cc1)C(=O)N[C@@H](CC(C)C)C(=O)N[C@@H](CC(C)C)C(=O)N[C@@H](CCC(=O)O)C(=O)NCC(=O)NCC(=O)N1CCC[C@H]1C(=O)N[C@@H](CO)C(=O)N[C@@H](CO)C(=O)NCC(=O)N[C@@H](C)C(=O)N1CCC[C@H]1C(=O)N1CCC[C@H]1C(=O)N1CCC[C@H]1C(=O)N[C@@H](CO)C(N)=O) [Peptide 21]	0.402
Y[αMeP]EGTFTSDYSILLDEK([AEEA-AEEA-γGlu-C18 diacid])AQQAFIEYLIEGGPSSG-NH2 (N-terminus assumed; SMILES CC[C@H](C)[C@H](NC(=O)[C@H](CC(C)C)NC(=O)[C@H](Cc1ccc(O)cc1)NC(=O)[C@H](CCC(=O)O)NC(=O)[C@@H](NC(=O)[C@H](Cc1ccccc1)NC(=O)[C@H](C)NC(=O)[C@H](CCC(N)=O)NC(=O)[C@H](CCC(N)=O)NC(=O)[C@H](C)NC(=O)[C@H](CCCCNC(=O)COCCOCCNC(=O)COCCOCCNC(=O)CC[C@H](NC(=O)CCCCCCCCCCCCCCCCC(=O)O)C(=O)O)NC(=O)[C@H](CCC(=O)O)NC(=O)[C@H](CC(=O)O)NC(=O)[C@H](CC(C)C)NC(=O)[C@H](CC(C)C)NC(=O)[C@@H](NC(=O)[C@H](CO)NC(=O)[C@H](Cc1ccc(O)cc1)NC(=O)[C@H](CC(=O)O)NC(=O)[C@H](CO)NC(=O)[C@@H](NC(=O)[C@H](Cc1ccccc1)NC(=O)[C@@H](NC(=O)CNC(=O)[C@H](CCC(=O)O)NC(=O)[C@]1(C)CCCN1C(=O)[C@@H](N)Cc1ccc(O)cc1)[C@@H](C)O)[C@@H](C)O)[C@@H](C)CC)[C@@H](C)CC)C(=O)N[C@@H](CCC(=O)O)C(=O)NCC(=O)NCC(=O)N1CCC[C@H]1C(=O)N[C@@H](CO)C(=O)N[C@@H](CO)C(=O)NCC(N)=O) [Peptide 197]	0.189
Y[Aib]EGT[αMePhe(2-F)]TSDHSI[αMeL]LDEK([AEEA-AEEA-γGlu-C18 diacid])AQ[Aib]HFI[dE]YLIEGGPSSG-NH2 (N-terminus assumed; SMILES CC[C@H](C)[C@H](NC(=O)[C@H](CC(C)C)NC(=O)[C@H](Cc1ccc(O)cc1)NC(=O)[C@@H](CCC(=O)O)NC(=O)[C@@H](NC(=O)[C@H](Cc1ccccc1)NC(=O)[C@H](Cc1c[nH]cn1)NC(=O)C(C)(C)NC(=O)[C@H](CCC(N)=O)NC(=O)[C@H](C)NC(=O)[C@H](CCCCNC(=O)COCCOCCNC(=O)COCCOCCNC(=O)CC[C@H](NC(=O)CCCCCCCCCCCCCCCCC(=O)O)C(=O)O)NC(=O)[C@H](CCC(=O)O)NC(=O)[C@H](CC(=O)O)NC(=O)[C@H](CC(C)C)NC(=O)[C@](C)(CC(C)C)NC(=O)[C@@H](NC(=O)[C@H](CO)NC(=O)[C@H](Cc1c[nH]cn1)NC(=O)[C@H](CC(=O)O)NC(=O)[C@H](CO)NC(=O)[C@@H](NC(=O)[C@](C)(Cc1ccccc1F)NC(=O)[C@@H](NC(=O)CNC(=O)[C@H](CCC(=O)O)NC(=O)C(C)(C)NC(=O)[C@@H](N)Cc1ccc(O)cc1)[C@@H](C)O)[C@@H](C)O)[C@@H](C)CC)[C@@H](C)CC)C(=O)N[C@@H](CCC(=O)O)C(=O)NCC(=O)NCC(=O)N1CCC[C@H]1C(=O)N[C@@H](CO)C(=O)N[C@@H](CO)C(=O)NCC(N)=O) [Peptide 179]	0.0169

Source: patent US20230293638A1 (Eli Lilly, published 2023)
